The record followed here is the array DNA melting data of Ke et al..

This data set in a line: melting temperature; melt of duplexes. The conditions noted are these: sodium 0.0675 M; strand 1 µM.
“CGACGTGCTTTATGTGCTG+CAGCACATCCAGCACGTCG (((((((((..((((((((+))))))))..)))))))))”: the Tm (as a rule, the temperature at the midpoint of the melting transition) stood at 49.4 °C. Next, “CGACGTGCGGGATGTGCTG+CAGCACATCCCGCACGTCG (((((((((((((((((((+)))))))))))))))))))”: 67.7 °C; “CGACGTGCGACATGTGCTG+CAGCACATTTAGCACGTCG ((((((((.(.((((((((+)))))))).).))))))))”: 52.2 °C; “CGACGTGCCCTATGTGCTG+CAGCACATATAGCACGTCG ((((((((..(((((((((+)))))))))..))))))))”: 49.6 °C. Then “CGACGTGCCGGATGTGCTG+CAGCACATCAAGCACGTCG ((((((((..(((((((((+)))))))))..))))))))”, with 54.8 °C; and “CGACGTGCCTTATGTGCTG+CAGCACATTGCGCACGTCG ((((((((...((((((((+))))))))...))))))))”, with 48.4 °C. Then “CGACGTGCCCAATGTGCTG+CAGCACATAAAGCACGTCG ((((((((...((((((((+))))))))...))))))))”, with 50.1 °C; and “CGACGTGCGAAATGTGCTG+CAGCACATGGAGCACGTCG ((((((((...((((((((+))))))))...))))))))”, with 60.7 °C. As for “CGACGTGCCTTATGTGCTG+CAGCACATAGCGCACGTCG ((((((((..(((((((((+)))))))))..))))))))”, the Tm was determined as 50.4 °C. Then “CGACGTGCCTGATGTGCTG+CAGCACATCAGGCACGTCG (((((((((((((((((((+)))))))))))))))))))”, with 65.9 °C; and “CGACGTGCCACATGTGCTG+CAGCACATACGGCACGTCG (((((((((..((((((((+))))))))..)))))))))”, with 53.4 °C; and “CGACGTGCGATATGTGCTG+CAGCACATAATGCACGTCG ((((((((..(((((((((+)))))))))..))))))))”, with 54 °C. Then “CGACGTGCTGTATGTGCTG+CAGCACATATAGCACGTCG (((((((((.(((((((((+))))))))).)))))))))”, with 57 °C; and “CGACGTGCGCAATGTGCTG+CAGCACATTCAGCACGTCG ((((((((..(((((((((+)))))))))..))))))))”, with 53.1 °C; and “CGACGTGCTGTATGTGCTG+CAGCACATGGTGCACGTCG ((((((((...((((((((+))))))))...))))))))”, with 47.2 °C. Then “CGACGTGCCTCATGTGCTG+CAGCACATAATGCACGTCG ((((((((.(.((((((((+)))))))).).))))))))”, with 48 °C; and “CGACGTGCATAATGTGCTG+CAGCACATATCGCACGTCG ((((((((...((((((((+))))))))...))))))))”, with 48.6 °C. As for “CGACGTGCAACATGTGCTG+CAGCACATATAGCACGTCG ((((((((.(.((((((((+)))))))).).))))))))”, the Tm was determined as 49.1 °C. Next, “CGACGTGCCTGATGTGCTG+CAGCACATTCGGCACGTCG (((((((((..((((((((+))))))))..)))))))))”: 54.7 °C; “CGACGTGCGCAATGTGCTG+CAGCACATCTCGCACGTCG (((((((((..((((((((+))))))))..)))))))))”: 52.8 °C. Then “CGACGTGCCTAATGTGCTG+CAGCACATGAGGCACGTCG ((((((((((.((((((((+)))))))).))))))))))”, with 58.5 °C. Take “CGACGTGCAGCATGTGCTG+CAGCACATGGAGCACGTCG ((((((((..(((((((((+)))))))))..))))))))”: the Tm was 54.1 °C. Next, “CGACGTGCCATATGTGCTG+CAGCACATGAGGCACGTCG (((((((((..((((((((+))))))))..)))))))))”: 56.2 °C. Then “CGACGTGCATGATGTGCTG+CAGCACATTAGGCACGTCG ((((((((.(.((((((((+)))))))).).))))))))”, with 54 °C; and “CGACGTGCCCGATGTGCTG+CAGCACATCGGGCACGTCG (((((((((((((((((((+)))))))))))))))))))”, with 68.2 °C.

In the case of “CGACGTGCTAGATGTGCTG+CAGCACATATAGCACGTCG ((((((((((.((((((((+)))))))).))))))))))”, the melting temperature (Tm) was found to be 57.6 °C.

As to “CGACGTGCTAAATGTGCTG+CAGCACATTATGCACGTCG ((((((((..(((((((((+)))))))))..))))))))”, the midpoint of thermal melting (Tm) amounted to 53.1 °C. Then “CGACGTGCTCGATGTGCTG+CAGCACATTCTGCACGTCG ((((((((...((((((((+))))))))...))))))))”, with 49.4 °C. Then “CGACGTGCGGTATGTGCTG+CAGCACATAATGCACGTCG ((((((((..(((((((((+)))))))))..))))))))”, with 54.6 °C.

For the substance “CGACGTGCTGCATGTGCTG+CAGCACATGACGCACGTCG ((((((((..(((((((((+)))))))))..))))))))”, the Tm was 52.9 °C.

On to “CGACGTGCATAATGTGCTG+CAGCACATCACGCACGTCG ((((((((.(.((((((((+)))))))).).))))))))”, for which the Tm turned out to be 47.6 °C. Then “CGACGTGCCGCATGTGCTG+CAGCACATAGCGCACGTCG ((((((((...((((((((+))))))))...))))))))”, with 53.9 °C; and “CGACGTGCCGTATGTGCTG+CAGCACATTAAGCACGTCG ((((((((...((((((((+))))))))...))))))))”, with 49.1 °C; and “CGACGTGCTCTATGTGCTG+CAGCACATGCCGCACGTCG ((((((((...((((((((+))))))))...))))))))”, with 48.2 °C.

As to “CGACGTGCCAAATGTGCTG+CAGCACATGAAGCACGTCG ((((((((...((((((((+))))))))...))))))))”, the melting temperature (Tm) came to 51.2 °C. Then “CGACGTGCGGGATGTGCTG+CAGCACATGTCGCACGTCG (((((((((..((((((((+))))))))..)))))))))”, with 57.8 °C. Next, “CGACGTGCGCGATGTGCTG+CAGCACATCACGCACGTCG (((((((((.(((((((((+))))))))).)))))))))”: 62.2 °C; “CGACGTGCCTAATGTGCTG+CAGCACATGACGCACGTCG ((((((((.(.((((((((+)))))))).).))))))))”: 46.4 °C. Then “CGACGTGCCGTATGTGCTG+CAGCACATCTTGCACGTCG ((((((((...((((((((+))))))))...))))))))”, with 48.5 °C; and “CGACGTGCCACATGTGCTG+CAGCACATACTGCACGTCG ((((((((...((((((((+))))))))...))))))))”, with 47.2 °C; and “CGACGTGCGATATGTGCTG+CAGCACATTGTGCACGTCG ((((((((...((((((((+))))))))...))))))))”, with 47.6 °C.

“CGACGTGCGTGATGTGCTG+CAGCACATTCTGCACGTCG ((((((((...((((((((+))))))))...))))))))”: the Tm was 51.8 °C. Then “CGACGTGCCTTATGTGCTG+CAGCACATAATGCACGTCG ((((((((.((((((((((+)))))))))).))))))))”, with 53.7 °C; and “CGACGTGCGCCATGTGCTG+CAGCACATGGTGCACGTCG ((((((((.((((((((((+)))))))))).))))))))”, with 62.5 °C; and “CGACGTGCGACATGTGCTG+CAGCACATAGTGCACGTCG ((((((((...((((((((+))))))))...))))))))”, with 48.8 °C. Then “CGACGTGCCTGATGTGCTG+CAGCACATCTGGCACGTCG (((((((((.(((((((((+))))))))).)))))))))”, with 61.1 °C; and “CGACGTGCTCCATGTGCTG+CAGCACATGGGGCACGTCG ((((((((.((((((((((+)))))))))).))))))))”, with 61.9 °C.

Consider “CGACGTGCAAAATGTGCTG+CAGCACATTCAGCACGTCG ((((((((..(((((((((+)))))))))..))))))))”, for which the Tm stood at 52.1 °C. Then “CGACGTGCTAGATGTGCTG+CAGCACATTCTGCACGTCG ((((((((...((((((((+))))))))...))))))))”, with 52.2 °C; and “CGACGTGCCGGATGTGCTG+CAGCACATCCGGCACGTCG (((((((((((((((((((+)))))))))))))))))))”, with 68.2 °C.

In the case of “CGACGTGCCTCATGTGCTG+CAGCACATTCTGCACGTCG ((((((((...((((((((+))))))))...))))))))”, the melting temperature (Tm) worked out at 47.1 °C. With “CGACGTGCATAATGTGCTG+CAGCACATGTCGCACGTCG ((((((((...((((((((+))))))))...))))))))”, the Tm is 52.2 °C. For the substance “CGACGTGCTTGATGTGCTG+CAGCACATAAAGCACGTCG ((((((((((.((((((((+)))))))).))))))))))”, the Tm was found to be 57.7 °C. Regarding “CGACGTGCGGAATGTGCTG+CAGCACATCCCGCACGTCG ((((((((((.((((((((+)))))))).))))))))))”, the Tm came to 60.3 °C.

Take “CGACGTGCCGTATGTGCTG+CAGCACATAAAGCACGTCG ((((((((..(((((((((+)))))))))..))))))))”: the Tm is 51.5 °C. In the case of “CGACGTGCCAGATGTGCTG+CAGCACATGATGCACGTCG ((((((((...((((((((+))))))))...))))))))”, the Tm was found to be 49.4 °C. Then “CGACGTGCACTATGTGCTG+CAGCACATGTTGCACGTCG (((((((((..((((((((+))))))))..)))))))))”, with 48.9 °C; and “CGACGTGCAGTATGTGCTG+CAGCACATTGAGCACGTCG ((((((((...((((((((+))))))))...))))))))”, with 49.1 °C; and “CGACGTGCACTATGTGCTG+CAGCACATGGCGCACGTCG ((((((((.(.((((((((+)))))))).).))))))))”, with 50.3 °C.

On to “CGACGTGCAATATGTGCTG+CAGCACATCAGGCACGTCG ((((((((...((((((((+))))))))...))))))))”, for which the Tm stood at 48.7 °C. Then “CGACGTGCCGTATGTGCTG+CAGCACATAGTGCACGTCG ((((((((..(((((((((+)))))))))..))))))))”, with 49.5 °C. With “CGACGTGCCTGATGTGCTG+CAGCACATAAAGCACGTCG ((((((((.(.((((((((+)))))))).).))))))))”, the Tm stood at 51.7 °C. Then “CGACGTGCTTTATGTGCTG+CAGCACATTAAGCACGTCG ((((((((((.((((((((+)))))))).))))))))))”, with 55.2 °C; and “CGACGTGCAATATGTGCTG+CAGCACATGAAGCACGTCG ((((((((...((((((((+))))))))...))))))))”, with 52.3 °C; and “CGACGTGCCATATGTGCTG+CAGCACATATGGCACGTCG (((((((((((((((((((+)))))))))))))))))))”, with 63 °C.

Consider “CGACGTGCAAGATGTGCTG+CAGCACATATCGCACGTCG ((((((((.(.((((((((+)))))))).).))))))))”, for which the midpoint of thermal melting (Tm) stood at 50.3 °C.
